Measured values: patent US20130071418

How the values were obtained:
PCP-consensus VPg = tested on: T1, PCP-consensus VPg
T1 sequence: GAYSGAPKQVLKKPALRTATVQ

Coxsackie virus A25 polymerase (CVA Pol3D)
uridylylation of VPg by Pol3D (PCP-consensus VPg): both the PV-Pol3D and that of CVA uridylylated the PCP-consensus VPg as well or better than the one encoded in their respective genomes | uridylylation of VPg by Pol3D (CVA24 VPg): uridylylated the PCP-consensus VPg as well or better than the one encoded in their respective genomes
